From patent US20180346538A1 (IMMATICS BIOTECHNOLOGIES, published 2018) come the findings set out here.

This assay deals with T1, HLA-A*02:01 (human).
T1 construct: MHC monomer captured on streptavidin plates; also called peptide-receptive MHC molecules; MHC class I
Kind of assay: UV-ligand exchange ELISA (anti-b2m), yield grade. For orientation: In an ELISA, binding on a coated surface is turned into a signal by an enzyme label.

Method: Candidate peptides for T cell based therapies according to the present invention were further tested for their MHC binding capacity (affinity). The individual peptide-MHC complexes were produced by UV-ligand exchange, where a UV-sensitive peptide is cleaved upon UV-irradiation, and exchanged with the peptide of interest as analyzed. […] To determine the yield of the exchange reaction, an ELISA was performed based on the detection of the light chain (β2m) of stabilized MHC complexes.
96 well MAXISorp plates (NUNC) were coated over night with 2 ug/ml streptavidin in PBS at room temperature, washed 4× and blocked for 1h at 37° C. in 2% BSA containing blocking buffer. […] Peptide-MHC monomers of the UV-exchange reaction were diluted 100 fold in blocking buffer. Samples were incubated for 1 h at 37° C., washed four times, incubated with 2 ug/ml HRP conjugated anti-β2m for 1h at 37° C., washed again and detected with TMB solution that is stopped with NH2SO4. Absorption was measured at 450 nm.

With SLLNQDLHWSL, the peptide exchange yield lay within 50 to 75%.

Regarding GLLDLPFRVGV, the peptide exchange yield is 50 to 75%.
